From patent US20210395394A1
Where a chain is given by its changes, count along the chain named.

B1: WT 1-6 (antibody, mouse IgG2b, kappa, V domains shown)
VH: QVQLQQPGAELVRPGASVKLSCKASGTSFTNYFMNWVKQRPGQGLEWIGMINPSDSETRLNQKFKDKATLTVDKSSSTAYMQLSSLTAEDSAVYYCARSGDFYTYYWDYWGQGTTLTVSS
VL: DIQLTQSPASLSASVGETVTITCRGSGNIHNYIAWYQQKQGKSPQLLVYNAKTVADGVPSRFSGSGSGTQYSLKINSLQPEDFGSYYCQSFWSSYTFGGGTKLEIKR
B2: WT 1-8 (antibody, mouse IgG2b, kappa, V domains shown)
VH: B1 VH with L60V, R98K, D101E, Y105S
VL: B1 VL with I29V, V54I
B3: Mutation 1-40 (antibody, mouse IgG2b, kappa, V domains shown)
VH: B1 VH with F33W, N52H, D55E, R98K, D101E, W107F
VL: B1 VL with I33L, K52R, V54I, S90T, S94T
B4: Mutation 1-10 (antibody, mouse IgG2b, kappa, V domains shown)
VH: B1 VH with F33W, N52H, D55E, D101E, W107F
VL: B1 VL with S26T, I29L, I33L, K52R, S90Y, S94T
B5: Mutation 1-26 (antibody, mouse IgG2b, kappa, V domains shown)
VH: B1 VH with T27Y, F33W, N52H, L60V, R98K, Y105T, W107F
VL: B1 VL with I29V, I33L, S90Y, S94T
B6: Mutation 1-8 (antibody, mouse IgG2b, kappa, V domains shown)
VH: B1 VH with T27Y, F33W, N52H, L60V, Y105T, W107F
VL: B1 VL with S26T, I29V, I33L, V54I, S90Y, S94T
B7: Mutation 1-19 (antibody, mouse IgG2b, kappa, V domains shown)
VH: B1 VH with T27Y, F33W, N52H, W107F
VL: B1 VL with I33L, V54L, S90Y, S94T
B8: Mutation 1-36 (antibody, mouse IgG2b, kappa, V domains shown)
VH: B1 VH with F33W, N52H, L60I, R98K, Y105S, W107F
VL: B1 VL with I29L, I33L, S94T
B9: Mutation 1-22 (antibody, mouse IgG2b, kappa, V domains shown)
VH: B1 VH with T27S, F33W, N52H, D55E, D101E, W107F
VL: B1 VL with S26T, I29L, I33L, K52R, V54L, S90T, S94T
B10: Mutation 1-21 (antibody, mouse IgG2b, kappa, V domains shown)
VH: B1 VH with F33W, N52H, D55E, L60I, D101E, Y105S, W107F
VL: B1 VL with I29V, I33L, K52R, V54I, S90Y, S94T
B11: Mutation 1-1 (antibody, mouse IgG2b, kappa, V domains shown)
VH: B1 VH with T27Y, F33W, N52H, D55E, R98K, W107F
VL: B1 VL with S26T, I29L, I33L, K52R, S90Y, S94T
B12: Mutation 1-39 (antibody, mouse IgG2b, kappa, V domains shown)
VH: B1 VH with T27S, F33W, N52H, D55E, L60I, R98K, D101E, Y105S, W107F
VL: B1 VL with S26T, I29V, I33L, K52R, S90Y, S94T
B13: Mutation 1-45 (antibody, mouse IgG2b, kappa, V domains shown)
VH: B1 VH with T27Y, F33W, N52H, D55E, L60I, D101E, W107F
VL: B1 VL with I29V, I33L, K52R, V54I, S94T
B14: Mutation 1-14 (antibody, mouse IgG2b, kappa, V domains shown)
VH: B1 VH with T27S, F33W, N52H, L60V, R98K, Y105T, W107F
VL: B1 VL with I29V, I33L, V54I, S94T
B15: Mutation 1-34 (antibody, mouse IgG2b, kappa, V domains shown)
VH: B1 VH with T27Y, F33W, N52H, D55E, D101E, W107F
VL: B1 VL with S26T, I29L, I33L, K52R, S94T
B16: Mutation 1-4 (antibody, mouse IgG2b, kappa, V domains shown)
VH: B1 VH with T27Y, F33W, N52H, R98K, D101E, W107F
VL: B1 VL with I33L, S90T, S94T
B17: Mutation 1-32 (antibody, mouse IgG2b, kappa, V domains shown)
VH: B1 VH with F33W, N52H, L60V, Y105T, W107F
VL: B1 VL with S26T, I29V, I33L, V54I, S94T
B18: Mutation 1-25 (antibody, mouse IgG2b, kappa, V domains shown)
VH: B1 VH with F33W, N52H, R98K, W107F
VL: B1 VL with S26T, I29L, I33L, V54I, S94T
B19: Mutation 1-20 (antibody, mouse IgG2b, kappa, V domains shown)
VH: B1 VH with T27S, F33W, N52H, L60V, Y105T, W107F
VL: B1 VL with S26T, I29V, I33L, S90T, S94T
B20: Mutation 1-41 (antibody, mouse IgG2b, kappa, V domains shown)
VH: B1 VH with T27Y, F33W, N52H, D55E, L60V, R98K, D101E, Y105T, W107F
VL: B1 VL with S26T, I33L, K52R, V54L, S94T
B21: Mutation 1-42 (antibody, mouse IgG2b, kappa, V domains shown)
VH: B1 VH with T27Y, F33W, N52H, L60I, Y105S, W107F
VL: B1 VL with S26T, I33L, V54I, S90T, S94T
B22: Mutation 1-3 (antibody, mouse IgG2b, kappa, V domains shown)
VH: B1 VH with F33W, N52H, L60I, R98K, D101E, Y105S, W107F
VL: B1 VL with S26T, I29V, I33L, V54I, S90Y, S94T
B23: Mutation 1-27 (antibody, mouse IgG2b, kappa, V domains shown)
VH: B1 VH with T27Y, F33W, N52H, D55E, L60I, R98K, D101E, Y105S, W107F
VL: B1 VL with S26T, I29V, I33L, K52R, V54L, S94T
B24: Mutation 1-5 (antibody, mouse IgG2b, kappa, V domains shown)
VH: B1 VH with T27S, F33W, N52H, L60V, R98K, D101E, Y105T, W107F
VL: B1 VL with S26T, I33L, V54L, S94T
B25: Mutation 1-30 (antibody, mouse IgG2b, kappa, V domains shown)
VH: B1 VH with T27S, F33W, N52H, L60I, Y105S, W107F
VL: B1 VL with S26T, I33L, V54L, S90Y, S94T
B26: Mutation 1-2 (antibody, mouse IgG2b, kappa, V domains shown)
VH: B1 VH with F33W, N52H, D55E, L60V, R98K, Y105T, W107F
VL: B1 VL with I29V, I33L, K52R, V54L, S90T, S94T
B27: Mutation 1-29 (antibody, mouse IgG2b, kappa, V domains shown)
VH: B1 VH with T27S, F33W, N52H, D55E, L60V, R98K, D101E, Y105T, W107F
VL: B1 VL with S26T, I33L, K52R, S90T, S94T
B28: Mutation 1-17 (antibody, mouse IgG2b, kappa, V domains shown)
VH: B1 VH with F33W, N52H, D55E, L60V, R98K, D101E, Y105T, W107F
VL: B1 VL with S26T, I33L, K52R, S90T, S94T
B29: Mutation 1-7 (antibody, mouse IgG2b, kappa, V domains shown)
VH: B1 VH with T27S, F33W, N52H, W107F
VL: B1 VL with I33L, S94T
B30: Mutation 1-38 (antibody, mouse IgG2b, kappa, V domains shown)
VH: B1 VH with T27Y, F33W, N52H, L60V, R98K, Y105T, W107F
VL: B1 VL with I29V, I33L, V54L, S90T, S94T
B31: Mutation 1-33 (antibody, mouse IgG2b, kappa, V domains shown)
VH: B1 VH with F33W, N52H, D55E, L60I, D101E, Y105S, W107F
VL: B1 VL with I29V, I33L, K52R, V54L, S90T, S94T
B32: Mutation 1-28 (antibody, mouse IgG2b, kappa, V domains shown)
VH: B1 VH with F33W, N52H, D55E, R98K, D101E, W107F
VL: B1 VL with I33L, K52R, V54I, S90Y, S94T
B33: Mutation 1-44 (antibody, mouse IgG2b, kappa, V domains shown)
VH: B1 VH with T27S, F33W, N52H, L60V, D101E, Y105S, W107F
VL: B1 VL with S26T, I29V, I33L, V54L, S90Y, S94T
B34: Mutation 1-37 (antibody, mouse IgG2b, kappa, V domains shown)
VH: B1 VH with T27S, F33W, N52H, R98K, W107F
VL: B1 VL with S26T, I29L, I33L, V54I, S90Y, S94T
B35: Mutation 1-12 (antibody, mouse IgG2b, kappa, V domains shown)
VH: B1 VH with T27Y, F33W, N52H, L60I, R98K, Y105S, W107F
VL: B1 VL with I29L, I33L, S90Y, S94T
B36: Mutation 1-31 (antibody, mouse IgG2b, kappa, V domains shown)
VH: B1 VH with T27Y, F33W, N52H, W107F
VL: B1 VL with I33L, S90T, S94T
B37: Mutation 1-11 (antibody, mouse IgG2b, kappa, V domains shown)
VH: B1 VH with T27Y, F33W, N52H, D55E, L60V, D101E, Y105T, W107F
VL: B1 VL with I29L, I33L, K52R, V54I, S90T, S94T
B38: Mutation 1-6 (antibody, mouse IgG2b, kappa, V domains shown)
VH: B1 VH with F33W, N52H, L60I, Y105S, W107F
VL: B1 VL with S26T, I33L, V54L, S90T, S94T
B39: Mutation 1-23 (antibody, mouse IgG2b, kappa, V domains shown)
VH: B1 VH with T27Y, F33W, N52H, D55E, L60V, D101E, Y105T, W107F
VL: B1 VL with I29L, I33L, K52R, S94T
B40: Mutation 1-24 (antibody, mouse IgG2b, kappa, V domains shown)
VH: B1 VH with T27S, F33W, N52H, L60I, R98K, Y105S, W107F
VL: B1 VL with I29L, I33L, V54L, S90T, S94T
B41: Mutation 1-35 (antibody, mouse IgG2b, kappa, V domains shown)
VH: B1 VH with T27S, F33W, N52H, D55E, L60V, D101E, Y105T, W107F
VL: B1 VL with I29L, I33L, K52R, V54I, S90Y, S94T
B42: Mutation 1-18 (antibody, mouse IgG2b, kappa, V domains shown)
VH: B1 VH with F33W, N52H, L60I, Y105S, W107F
VL: B1 VL with S26T, I33L, V54I, S94T
B43: Mutation 1-15 (antibody, mouse IgG2b, kappa, V domains shown)
VH: B1 VH with T27S, F33W, N52H, D55E, L60I, R98K, D101E, Y105S, W107F
VL: B1 VL with S26T, I29V, I33L, K52R, S90T, S94T
B44: Mutation 1-13 (antibody, mouse IgG2b, kappa, V domains shown)
VH: B1 VH with F33W, N52H, R98K, W107F
VL: B1 VL with S26T, I29L, I33L, V54L, S90T, S94T
B45: WT 1-7 (antibody, mouse IgG2b, kappa, V domains shown)
VH: B1 VH with T27S, L60V, D101E, Y105S
VL: B1 VL with S26T, I29V, V54L, S90Y
B46: Mutation 1-16 (antibody, mouse IgG2b, kappa, V domains shown)
VH: B1 VH with T27Y, F33W, N52H, D55E, R98K, D101E, W107F
VL: B1 VL with I33L, K52R, V54L, S94T
B47: Mutation 1-9 (antibody, mouse IgG2b, kappa, V domains shown)
VH: B1 VH with T27S, F33W, N52H, D55E, L60I, D101E, Y105S, W107F
VL: B1 VL with I29V, I33L, K52R, V54L, S94T
B48: WT 1-9 (antibody, mouse IgG2b, kappa, V domains shown)
VH: B1 VH with T27S, D55E, L60I, R98K, D101E
VL: B1 VL with S26T, I29V, K52R, V54L, S90T
B49: Mutation 1-43 (antibody, mouse IgG2b, kappa, V domains shown)
VH: B1 VH with F33W, N52H, W107F
VL: B1 VL with I33L, S94T

biological target: Pan-species-specific antigen Plasmodium Lactate DeHydrogenase (Pan-PLDH) protein; test: indirect ELISA at four coating concentrations, KD calculated from half-maximal OD

Row | Kd [nM] | Binder
1 | 1.56 | B1
2 | 1.36 | B2
3 | 0.439 | B3
4 | 0.525 | B4
5 | 0.374 | B5
6 | 0.481 | B6
7 | 0.329 | B7
8 | 0.518 | B8
9 | 0.378 | B9
10 | 0.655 | B10
11 | 0.521 | B11
12 | 0.55 | B12
13 | 0.415 | B13
14 | 0.488 | B14
15 | 0.565 | B15
16 | 0.596 | B16
17 | 0.329 | B17
18 | 0.493 | B18
19 | 0.204 | B19
20 | 0.743 | B20
21 | 0.545 | B21
22 | 0.098 | B22
23 | 0.427 | B23
24 | 0.532 | B24
25 | 0.198 | B25

Row | Kd [nM] | Binder
26 | 0.338 | B26
27 | 0.411 | B27
28 | 0.37 | B28
29 | 0.208 | B29
30 | 0.613 | B30
31 | 0.372 | B31
32 | 0.759 | B32
33 | 0.318 | B33
34 | 0.52 | B34
35 | 0.118 | B35
36 | 0.514 | B36
37 | 0.465 | B37
38 | 0.664 | B38
39 | 0.319 | B39
40 | 0.402 | B40
41 | 0.424 | B41
42 | 0.567 | B42
43 | 0.47 | B43
44 | 0.531 | B44
45 | 0.757 | B45
46 | 0.411 | B46
47 | 0.616 | B47
48 | 0.621 | B48
49 | 0.53 | B49
